Laboratory results from patent US20180155451A1 (published 2018).

B1: GpH7-B3 variant S298_11K/GpL16-k0 (antibody, human IgG1, kappa)
heavy: not shown
light: DIVMTQSPLSLPVTPGEPASISCQASESLVHSNRNTYLHWYLQKPGQSPQLLIYKVSNRFSGVPDRFSGSGSGTDFTLKISRVEAEDVGVYYCSQNTHVPPTFGQGTKVEIERTVAAPSVFIFPPSDEQLKSGTASVVCLLNNFYPREAKVQWKVDNALQSGNSQESVTEQDSKDSTYSLSSTLTLSKADYEKHKVYACEVTHQGLSSPVTKSFNRGEC
notes: mutation in both H chains; also called Ho Ab S298_11K; S298K
B2: GpH7-B3 variant S267_03V/GpL16-k0 (antibody, human IgG1, kappa)
heavy: not shown
light: B1 light
notes: mutation in both H chains; also called Ho Ab S267_03V; S267V
B3: GpH7-B3 variant S298_16H/GpL16-k0 (antibody, human IgG1, kappa)
heavy: not shown
light: B1 light
notes: mutation in both H chains; also called Ho Ab S298_16H; S298H
B4: GpH7-B3 variant S298_04F/GpL16-k0 (antibody, human IgG1, kappa)
heavy: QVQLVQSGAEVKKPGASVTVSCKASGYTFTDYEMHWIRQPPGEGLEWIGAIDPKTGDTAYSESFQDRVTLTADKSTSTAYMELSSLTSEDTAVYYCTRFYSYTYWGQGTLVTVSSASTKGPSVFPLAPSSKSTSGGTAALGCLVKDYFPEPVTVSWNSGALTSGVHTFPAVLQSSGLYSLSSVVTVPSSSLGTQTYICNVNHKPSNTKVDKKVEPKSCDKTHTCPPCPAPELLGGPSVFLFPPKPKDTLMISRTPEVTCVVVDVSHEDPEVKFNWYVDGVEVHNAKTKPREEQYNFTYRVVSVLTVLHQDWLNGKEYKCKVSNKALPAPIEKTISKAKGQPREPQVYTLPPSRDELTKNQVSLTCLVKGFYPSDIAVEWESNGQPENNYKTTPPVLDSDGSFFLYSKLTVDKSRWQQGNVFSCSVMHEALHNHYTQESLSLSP
light: B1 light
notes: mutation in both H chains; also called Ho Ab S298_04F; S298F
B5: GpH7-B3 variant S298_18N/GpL16-k0 (antibody, human IgG1, kappa)
heavy: not shown
light: B1 light
notes: mutation in both H chains; also called Ho Ab S298_18N; S298N
B6: GpH7-B3 variant S324_11K/GpL16-k0 (antibody, human IgG1, kappa)
heavy: not shown
light: B1 light
notes: mutation in both H chains; also called Ho Ab S324_11K; S324K
B7: GpH7-B3 variant S298_20W/GpL16-k0 (antibody, human IgG1, kappa)
heavy: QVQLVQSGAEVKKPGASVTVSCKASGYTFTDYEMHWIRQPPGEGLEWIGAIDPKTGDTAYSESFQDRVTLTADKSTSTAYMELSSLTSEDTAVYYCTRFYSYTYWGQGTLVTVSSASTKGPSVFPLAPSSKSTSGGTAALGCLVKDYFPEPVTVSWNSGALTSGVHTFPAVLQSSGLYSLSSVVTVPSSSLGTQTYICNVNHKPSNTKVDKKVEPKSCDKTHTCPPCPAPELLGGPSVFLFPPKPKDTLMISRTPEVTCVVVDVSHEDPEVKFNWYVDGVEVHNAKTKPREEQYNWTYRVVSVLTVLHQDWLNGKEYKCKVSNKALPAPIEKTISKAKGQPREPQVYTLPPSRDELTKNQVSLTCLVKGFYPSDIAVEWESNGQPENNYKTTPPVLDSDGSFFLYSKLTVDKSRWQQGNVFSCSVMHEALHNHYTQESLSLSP
light: B1 light
notes: mutation in both H chains; also called Ho Ab S298_20W; S298W
B8: GpH7-B3 variant S267_02A/GpL16-k0 (antibody, human IgG1, kappa)
heavy: not shown
light: B1 light
notes: mutation in both H chains; also called Ho Ab S267_02A; S267A
B9: GpH7-B3 variant S239_18N/GpL16-k0 (antibody, human IgG1, kappa)
heavy: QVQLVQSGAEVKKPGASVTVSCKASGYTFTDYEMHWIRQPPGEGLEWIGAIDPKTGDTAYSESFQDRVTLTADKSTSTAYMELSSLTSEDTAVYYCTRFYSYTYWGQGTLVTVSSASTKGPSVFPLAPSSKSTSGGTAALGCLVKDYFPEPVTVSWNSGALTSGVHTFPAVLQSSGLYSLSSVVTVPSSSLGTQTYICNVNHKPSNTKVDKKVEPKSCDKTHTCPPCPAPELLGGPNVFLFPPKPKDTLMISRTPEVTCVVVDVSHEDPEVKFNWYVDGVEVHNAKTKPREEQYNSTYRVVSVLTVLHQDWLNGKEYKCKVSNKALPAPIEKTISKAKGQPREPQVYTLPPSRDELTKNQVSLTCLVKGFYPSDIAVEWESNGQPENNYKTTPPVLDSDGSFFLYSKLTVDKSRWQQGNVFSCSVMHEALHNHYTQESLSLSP
light: B1 light
notes: mutation in both H chains; also called Ho Ab S239_18N; S239N
B10: GpH7-B3 variant S298_02A/GpL16-k0 (antibody, human IgG1, kappa)
heavy: not shown
light: B1 light
notes: mutation in both H chains; also called Ho Ab S298_02A; S298A
B11: GpH7-B3 variant S298_14T/GpL16-k0 (antibody, human IgG1, kappa)
heavy: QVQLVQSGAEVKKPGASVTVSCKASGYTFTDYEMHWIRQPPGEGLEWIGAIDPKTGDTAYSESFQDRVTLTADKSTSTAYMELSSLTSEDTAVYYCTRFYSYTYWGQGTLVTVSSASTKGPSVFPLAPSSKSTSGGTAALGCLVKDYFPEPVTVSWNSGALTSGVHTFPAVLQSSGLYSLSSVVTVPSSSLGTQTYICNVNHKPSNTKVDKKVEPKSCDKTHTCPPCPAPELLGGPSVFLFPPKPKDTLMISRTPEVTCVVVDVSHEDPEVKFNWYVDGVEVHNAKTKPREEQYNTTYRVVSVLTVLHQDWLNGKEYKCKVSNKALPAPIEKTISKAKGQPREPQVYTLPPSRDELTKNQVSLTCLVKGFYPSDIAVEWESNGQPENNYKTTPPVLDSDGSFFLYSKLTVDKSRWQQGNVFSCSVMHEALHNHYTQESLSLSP
light: B1 light
notes: mutation in both H chains; also called Ho Ab S298_14T; S298T
B12: GpH7-B3 variant S267_01G/GpL16-k0 (antibody, human IgG1, kappa)
heavy: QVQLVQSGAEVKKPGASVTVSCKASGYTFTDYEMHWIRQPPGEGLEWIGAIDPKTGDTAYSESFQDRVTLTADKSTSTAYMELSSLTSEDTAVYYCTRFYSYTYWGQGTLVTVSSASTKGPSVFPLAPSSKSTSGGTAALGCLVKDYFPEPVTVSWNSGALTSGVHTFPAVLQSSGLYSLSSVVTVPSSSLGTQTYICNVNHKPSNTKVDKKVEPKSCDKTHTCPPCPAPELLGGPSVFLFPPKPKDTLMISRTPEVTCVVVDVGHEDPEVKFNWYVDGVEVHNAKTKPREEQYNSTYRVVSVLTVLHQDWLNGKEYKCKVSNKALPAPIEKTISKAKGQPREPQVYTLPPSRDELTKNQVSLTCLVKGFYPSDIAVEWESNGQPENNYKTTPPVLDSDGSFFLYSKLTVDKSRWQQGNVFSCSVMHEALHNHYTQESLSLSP
light: B1 light
notes: mutation in both H chains; also called Ho Ab S267_01G; S267G
B13: GpH7-B3 variant S239_19Q/GpL16-k0 (antibody, human IgG1, kappa)
heavy: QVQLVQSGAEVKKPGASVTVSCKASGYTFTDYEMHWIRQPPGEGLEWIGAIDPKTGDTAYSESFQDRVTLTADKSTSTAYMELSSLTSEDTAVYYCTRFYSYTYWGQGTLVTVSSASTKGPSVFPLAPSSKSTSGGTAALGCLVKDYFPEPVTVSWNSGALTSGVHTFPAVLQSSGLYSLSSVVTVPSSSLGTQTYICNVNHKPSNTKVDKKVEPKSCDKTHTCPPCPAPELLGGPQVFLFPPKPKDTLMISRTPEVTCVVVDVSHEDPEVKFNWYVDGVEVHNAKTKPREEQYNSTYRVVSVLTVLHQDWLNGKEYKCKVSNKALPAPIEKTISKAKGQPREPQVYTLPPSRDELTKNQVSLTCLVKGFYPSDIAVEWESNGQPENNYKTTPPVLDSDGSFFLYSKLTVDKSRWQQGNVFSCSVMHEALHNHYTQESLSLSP
light: B1 light
notes: mutation in both H chains; also called Ho Ab S239_19Q; S239Q
B14: GpH7-B3 variant S298_12R/GpL16-k0 (antibody, human IgG1, kappa)
heavy: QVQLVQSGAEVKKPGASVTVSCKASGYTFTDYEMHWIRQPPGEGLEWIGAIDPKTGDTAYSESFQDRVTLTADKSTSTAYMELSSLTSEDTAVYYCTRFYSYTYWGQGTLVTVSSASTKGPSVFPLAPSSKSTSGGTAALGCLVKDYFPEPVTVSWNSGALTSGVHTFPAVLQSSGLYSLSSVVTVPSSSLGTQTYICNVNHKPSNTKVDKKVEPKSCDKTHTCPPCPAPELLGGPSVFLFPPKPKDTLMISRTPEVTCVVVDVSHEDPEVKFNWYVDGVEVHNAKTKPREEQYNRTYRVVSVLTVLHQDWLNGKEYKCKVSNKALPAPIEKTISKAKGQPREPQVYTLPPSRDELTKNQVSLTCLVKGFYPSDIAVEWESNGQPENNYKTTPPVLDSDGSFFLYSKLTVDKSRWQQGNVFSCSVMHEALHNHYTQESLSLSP
light: B1 light
notes: mutation in both H chains; also called Ho Ab S298_12R; S298R
B15: GpH7-B3 variant S298_08L/GpL16-k0 (antibody, human IgG1, kappa)
heavy: not shown
light: B1 light
notes: mutation in both H chains; also called Ho Ab S298_08L; S298L
B16: GpH7-B3 variant S267_16H/GpL16-k0 (antibody, human IgG1, kappa)
heavy: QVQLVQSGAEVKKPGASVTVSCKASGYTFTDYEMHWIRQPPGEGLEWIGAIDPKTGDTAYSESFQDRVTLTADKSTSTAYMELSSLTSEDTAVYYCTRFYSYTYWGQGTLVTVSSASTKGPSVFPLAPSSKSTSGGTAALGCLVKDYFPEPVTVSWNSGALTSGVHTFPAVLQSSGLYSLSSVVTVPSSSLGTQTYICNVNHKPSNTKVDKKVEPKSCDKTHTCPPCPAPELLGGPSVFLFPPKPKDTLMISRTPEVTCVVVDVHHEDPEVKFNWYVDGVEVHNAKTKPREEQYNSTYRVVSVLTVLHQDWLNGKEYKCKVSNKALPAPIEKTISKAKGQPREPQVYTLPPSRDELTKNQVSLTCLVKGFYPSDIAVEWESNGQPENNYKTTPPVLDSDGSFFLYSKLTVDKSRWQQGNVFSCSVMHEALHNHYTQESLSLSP
light: B1 light
notes: mutation in both H chains; also called Ho Ab S267_16H; S267H
B17: GpH7-B3 variant S324_03V/GpL16-k0 (antibody, human IgG1, kappa)
heavy: not shown
light: B1 light
notes: mutation in both H chains; also called Ho Ab S324_03V; S324V
B18: GpH7-B3 variant S298_03V/GpL16-k0 (antibody, human IgG1, kappa)
heavy: not shown
light: B1 light
notes: mutation in both H chains; also called Ho Ab S298_03V; S298V
B19: GpH7-B3 variant S298_19Q/GpL16-k0 (antibody, human IgG1, kappa)
heavy: not shown
light: B1 light
notes: mutation in both H chains; also called Ho Ab S298_19Q; S298Q
B20: GpH7-B3 variant S298_06M/GpL16-k0 (antibody, human IgG1, kappa)
heavy: not shown
light: B1 light
notes: mutation in both H chains; also called Ho Ab S298_06M; S298M
B21: GpH7-B3 variant S267_09D/GpL16-k0 (antibody, human IgG1, kappa)
heavy: not shown
light: B1 light
notes: mutation in both H chains; also called Ho Ab S267_09D; S267D
B22: GpH7-B3 variant S324_02A/GpL16-k0 (antibody, human IgG1, kappa)
heavy: not shown
light: B1 light
notes: mutation in both H chains; also called Ho Ab S324_02A; S324A
B23: GpH7-B3 variant S239_14T/GpL16-k0 (antibody, human IgG1, kappa)
heavy: not shown
light: B1 light
notes: mutation in both H chains; also called Ho Ab S239_14T; S239T
B24: GpH7-B3 variant S324_08L/GpL16-k0 (antibody, human IgG1, kappa)
heavy: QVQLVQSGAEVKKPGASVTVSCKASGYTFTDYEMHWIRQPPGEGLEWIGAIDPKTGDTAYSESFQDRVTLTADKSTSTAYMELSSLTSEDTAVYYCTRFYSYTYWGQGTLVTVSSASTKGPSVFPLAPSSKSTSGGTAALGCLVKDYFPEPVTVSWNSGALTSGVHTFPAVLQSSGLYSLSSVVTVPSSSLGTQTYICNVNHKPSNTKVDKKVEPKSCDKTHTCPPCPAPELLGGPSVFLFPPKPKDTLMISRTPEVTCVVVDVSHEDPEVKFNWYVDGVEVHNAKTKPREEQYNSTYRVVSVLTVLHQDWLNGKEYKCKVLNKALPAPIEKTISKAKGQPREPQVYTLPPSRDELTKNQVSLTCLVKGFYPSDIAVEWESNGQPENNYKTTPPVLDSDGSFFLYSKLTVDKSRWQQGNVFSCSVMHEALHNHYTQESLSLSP
light: B1 light
notes: mutation in both H chains; also called Ho Ab S324_08L; S324L
B25: GpH7-B3 variant S239_09D/GpL16-k0 (antibody, human IgG1, kappa)
heavy: not shown
light: B1 light
notes: mutation in both H chains; also called Ho Ab S239_09D; S239D
B26: GpH7-B3 variant S298_01G/GpL16-k0 (antibody, human IgG1, kappa)
heavy: not shown
light: B1 light
notes: mutation in both H chains; also called Ho Ab S298_01G; S298G
B27: GpH7-B3 variant S267_08L/GpL16-k0 (antibody, human IgG1, kappa)
heavy: not shown
light: B1 light
notes: mutation in both H chains; also called Ho Ab S267_08L; S267L
B28: GpH7-B3 variant S298_15Y/GpL16-k0 (antibody, human IgG1, kappa)
heavy: not shown
light: B1 light
notes: mutation in both H chains; also called Ho Ab S298_15Y; S298Y
B29: GpH7-B3 variant S298_07I/GpL16-k0 (antibody, human IgG1, kappa)
heavy: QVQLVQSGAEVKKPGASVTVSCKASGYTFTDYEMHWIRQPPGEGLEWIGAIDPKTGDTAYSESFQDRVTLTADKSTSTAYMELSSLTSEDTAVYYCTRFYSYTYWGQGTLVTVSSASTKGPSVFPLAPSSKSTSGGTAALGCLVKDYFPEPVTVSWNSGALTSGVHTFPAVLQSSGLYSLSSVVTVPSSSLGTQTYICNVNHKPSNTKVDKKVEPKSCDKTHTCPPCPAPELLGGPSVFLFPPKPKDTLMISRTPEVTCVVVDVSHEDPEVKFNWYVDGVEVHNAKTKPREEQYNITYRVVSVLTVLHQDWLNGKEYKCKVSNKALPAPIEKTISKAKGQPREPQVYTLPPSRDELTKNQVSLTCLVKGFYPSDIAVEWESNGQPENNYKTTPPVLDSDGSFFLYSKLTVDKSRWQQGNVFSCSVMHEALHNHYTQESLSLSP
light: B1 light
notes: mutation in both H chains; also called Ho Ab S298_07I; S298I

Each binder was assayed against T1, FcγRIa extracellular domain with C-terminal His tag (human, UniProt P12314 16-292) (assay: SPR Biacore, relative FcγRIa binding vs GpH7-B3/GpL16-k0).
T1 construct: extracellular domain; also called FcgRI; CD64; not shown: His tag at the C terminus
T1 sequence (P12314 16-292): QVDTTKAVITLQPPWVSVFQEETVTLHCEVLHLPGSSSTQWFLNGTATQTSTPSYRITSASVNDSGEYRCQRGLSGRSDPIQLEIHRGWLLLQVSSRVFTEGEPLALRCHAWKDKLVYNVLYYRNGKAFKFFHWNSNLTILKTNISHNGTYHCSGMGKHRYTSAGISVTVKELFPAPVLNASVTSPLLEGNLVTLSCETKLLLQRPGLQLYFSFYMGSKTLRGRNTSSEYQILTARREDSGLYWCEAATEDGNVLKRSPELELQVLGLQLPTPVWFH

| Ho/Con_1a | Binder |
| --- | --- |
| 90.4 % of HoCon Ab (=100) | B1 |
| 102 % of HoCon Ab (=100) | B2 |
| 107 % of HoCon Ab (=100) | B3 |
| 107 % of HoCon Ab (=100) | B4 |
| 104 % of HoCon Ab (=100) | B5 |
| 100 % of HoCon Ab (=100) | B6 |
| 71.5 % of HoCon Ab (=100) | B7 |
| 108 % of HoCon Ab (=100) | B8 |
| 97.9 % of HoCon Ab (=100) | B9 |
| 106 % of HoCon Ab (=100) | B10 |
| 106 % of HoCon Ab (=100) | B11 |
| 102 % of HoCon Ab (=100) | B12 |
| 93.4 % of HoCon Ab (=100) | B13 |
| 94.5 % of HoCon Ab (=100) | B14 |
| 104 % of HoCon Ab (=100) | B15 |
| 98.2 % of HoCon Ab (=100) | B16 |
| 103 % of HoCon Ab (=100) | B17 |
| 106 % of HoCon Ab (=100) | B18 |
| 105 % of HoCon Ab (=100) | B19 |
| 106 % of HoCon Ab (=100) | B20 |
| 106 % of HoCon Ab (=100) | B21 |
| 103 % of HoCon Ab (=100) | B22 |
| 101 % of HoCon Ab (=100) | B23 |
| 103 % of HoCon Ab (=100) | B24 |
| 101 % of HoCon Ab (=100) | B25 |
| 103 % of HoCon Ab (=100) | B26 |
| 99.9 % of HoCon Ab (=100) | B27 |
| 103 % of HoCon Ab (=100) | B28 |
| 103 % of HoCon Ab (=100) | B29 |
